The target of test [1] is T1, human SEZ6 expressed on stably transfected CHO-K1 cells (human, UniProt Q53EL9 20-994).
T1 construct: also called CHO-SEZ6; hSEZ6
T1 sequence: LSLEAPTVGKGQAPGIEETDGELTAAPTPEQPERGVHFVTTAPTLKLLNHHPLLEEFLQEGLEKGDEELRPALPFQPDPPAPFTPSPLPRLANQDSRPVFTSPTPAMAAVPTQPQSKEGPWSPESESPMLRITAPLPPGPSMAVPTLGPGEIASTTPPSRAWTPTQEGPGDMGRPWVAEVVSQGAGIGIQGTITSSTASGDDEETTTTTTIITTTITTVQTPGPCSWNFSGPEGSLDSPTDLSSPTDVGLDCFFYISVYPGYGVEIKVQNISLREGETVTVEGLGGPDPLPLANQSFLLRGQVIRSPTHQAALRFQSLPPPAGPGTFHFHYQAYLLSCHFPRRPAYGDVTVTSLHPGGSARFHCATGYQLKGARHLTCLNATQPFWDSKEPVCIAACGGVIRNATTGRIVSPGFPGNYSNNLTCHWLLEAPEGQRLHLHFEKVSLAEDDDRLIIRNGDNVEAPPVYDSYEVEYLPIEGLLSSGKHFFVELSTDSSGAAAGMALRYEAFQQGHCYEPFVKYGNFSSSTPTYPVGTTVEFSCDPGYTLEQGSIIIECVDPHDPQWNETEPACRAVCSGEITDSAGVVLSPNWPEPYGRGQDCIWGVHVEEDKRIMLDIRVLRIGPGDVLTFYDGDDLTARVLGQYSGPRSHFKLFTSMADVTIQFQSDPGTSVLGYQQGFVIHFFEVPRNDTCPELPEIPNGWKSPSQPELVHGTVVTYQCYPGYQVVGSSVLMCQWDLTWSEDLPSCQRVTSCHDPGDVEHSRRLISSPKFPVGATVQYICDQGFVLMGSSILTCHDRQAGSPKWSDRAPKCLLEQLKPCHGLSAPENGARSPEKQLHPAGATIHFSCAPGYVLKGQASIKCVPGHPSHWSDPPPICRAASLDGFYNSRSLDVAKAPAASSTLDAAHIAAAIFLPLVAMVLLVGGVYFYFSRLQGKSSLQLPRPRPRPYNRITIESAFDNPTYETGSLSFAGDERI
The test is described as follows: flow cytometry on CHO-K1 cells expressing human SEZ6. For orientation: Flow cytometry measures light scatter and fluorescence of single cells or particles in a stream.

The target in test [2] is T2, Recombinant monkey SEZ6-His6 protein (cynomolgus monkey, UniProt Q53EL9 20-925 (human entry)).
T2 construct: also called Cynomolgus monkey SEZ6-His6
T2 chain: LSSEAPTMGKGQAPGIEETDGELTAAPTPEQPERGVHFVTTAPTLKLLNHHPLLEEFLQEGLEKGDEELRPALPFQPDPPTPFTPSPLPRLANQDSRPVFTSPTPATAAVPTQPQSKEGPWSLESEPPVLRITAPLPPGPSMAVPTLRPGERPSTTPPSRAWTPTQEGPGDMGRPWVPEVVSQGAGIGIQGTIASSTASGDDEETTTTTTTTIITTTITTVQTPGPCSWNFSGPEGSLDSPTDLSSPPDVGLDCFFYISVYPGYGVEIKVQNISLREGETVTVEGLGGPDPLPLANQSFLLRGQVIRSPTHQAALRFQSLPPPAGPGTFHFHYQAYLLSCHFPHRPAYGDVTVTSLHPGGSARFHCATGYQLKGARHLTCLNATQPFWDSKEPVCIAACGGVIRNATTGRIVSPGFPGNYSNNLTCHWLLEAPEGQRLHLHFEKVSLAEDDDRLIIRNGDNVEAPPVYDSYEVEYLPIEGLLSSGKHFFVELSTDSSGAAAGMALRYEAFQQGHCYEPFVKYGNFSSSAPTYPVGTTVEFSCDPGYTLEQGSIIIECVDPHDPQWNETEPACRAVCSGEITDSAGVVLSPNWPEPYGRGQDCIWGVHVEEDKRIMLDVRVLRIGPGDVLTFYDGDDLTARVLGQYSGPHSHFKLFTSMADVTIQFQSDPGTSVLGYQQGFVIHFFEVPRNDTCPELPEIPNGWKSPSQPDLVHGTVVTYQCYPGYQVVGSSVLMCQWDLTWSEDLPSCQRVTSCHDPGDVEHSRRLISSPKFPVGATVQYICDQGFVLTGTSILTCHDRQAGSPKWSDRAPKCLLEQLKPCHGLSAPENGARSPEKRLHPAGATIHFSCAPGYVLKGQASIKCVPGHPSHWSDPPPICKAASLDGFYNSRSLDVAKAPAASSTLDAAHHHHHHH
The test is described as follows: SPR (BIAcore 8K), antibody captured on protein A chip, SEZ6-His6 as analyte, 1:1 Langmuir model. Background: In SPR one partner is held on a chip, and binding of the other changes the refractive index at the surface.

In test [3] the target is T3, Recombinant human SEZ6-His6 protein (human, UniProt Q53EL9 20-925).
T3 construct: also called His-tagged SEZ6 antigen
T3 sequence: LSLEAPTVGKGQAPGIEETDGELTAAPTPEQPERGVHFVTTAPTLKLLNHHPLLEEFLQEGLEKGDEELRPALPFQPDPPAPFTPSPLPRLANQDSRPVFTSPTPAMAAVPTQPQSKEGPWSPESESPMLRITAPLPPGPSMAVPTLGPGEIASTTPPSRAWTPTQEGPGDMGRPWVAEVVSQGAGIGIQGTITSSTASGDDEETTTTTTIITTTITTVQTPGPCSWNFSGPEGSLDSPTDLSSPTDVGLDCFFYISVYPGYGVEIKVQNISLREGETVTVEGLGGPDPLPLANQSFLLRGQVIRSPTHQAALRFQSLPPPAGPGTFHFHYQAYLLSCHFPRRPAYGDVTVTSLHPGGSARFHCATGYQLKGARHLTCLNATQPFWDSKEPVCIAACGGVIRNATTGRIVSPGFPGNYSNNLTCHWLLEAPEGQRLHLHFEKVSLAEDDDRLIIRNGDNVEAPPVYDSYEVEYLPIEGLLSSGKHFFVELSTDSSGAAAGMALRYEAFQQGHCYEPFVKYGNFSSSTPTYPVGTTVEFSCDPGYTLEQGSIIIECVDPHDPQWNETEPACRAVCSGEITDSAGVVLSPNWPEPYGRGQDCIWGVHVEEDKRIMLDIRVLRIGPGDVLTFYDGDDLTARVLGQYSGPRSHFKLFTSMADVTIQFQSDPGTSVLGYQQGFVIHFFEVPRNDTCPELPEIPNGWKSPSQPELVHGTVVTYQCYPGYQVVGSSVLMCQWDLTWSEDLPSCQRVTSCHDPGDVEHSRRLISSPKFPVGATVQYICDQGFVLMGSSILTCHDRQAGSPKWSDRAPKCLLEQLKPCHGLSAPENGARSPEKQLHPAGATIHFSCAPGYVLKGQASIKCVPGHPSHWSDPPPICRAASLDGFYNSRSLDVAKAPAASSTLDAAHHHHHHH
Described as above.

B1: PR3178 (antibody, human IgG1, kappa, V domains shown)
VH: QVQLVQSGAEVKKPGASVKVSCKASGYTFTDYEMHWVRQAPGQGLEWMGGIDPESDNTVYNQKFKGRVTLTEDTSTSTAYMELRSLRSEDTAVYYCTRGDWYFDVWGQGTTVTVSS
VL: DIVMTQSPDSLAVSLGERATINCKSSQSLLNSRTRENYLAWYQQKPGQPPKLLIYWASTRESGVPDRFSGSGSGTDFTLTISSLQAEDVAVYYCGQSYNLFTFGQGTKLEIKR
notes: Humanized, human IgG1, kappa; also called humanized antibody of cAb3009
Usually EC50 stands for the concentration that produces a half-maximal response. A word on the Kd: it is the free concentration of one partner at which half of the binding sites on the other are occupied at equilibrium, for simple one-to-one binding. Usually koff stands for a measure of how fast the partners let go of each other. One may read the kon as the rate constant with which the complex forms. Consider B1, for which, in test [1], the EC50 came to 0.05 nM and the MFImax amounted to 1300. In addition, in test [2], the Kd was determined as 1.55 nM, the koff amounted to 0.000616 s⁻¹ and the association rate constant (kon) turned out to be 398000 M⁻¹ s⁻¹. In addition, in test [3], the Kd amounted to 1.61 nM, the koff is 0.00064 s⁻¹ and the kon was 396000 M⁻¹ s⁻¹.

B2: hSC200 (hSC17.200) (antibody, human IgG1, kappa, V domains shown)
VH: EVQLVQSGAEVKKPGESLKISCKGSGYSFTSSWINWVRQMPGKGLEWMGRIYPGEGDTNYNGNFEGQVTISADKSISTAYLQWSSLKASDTAMYYCTRGLVMDYWGQGTLVTVSS
VL: EIVLTQSPATLSLSPGERATLSCRASQSVDYNGISYMHWYQQKPGQAPRLLIYAASNVQSGIPARFSGSGSGTDFTLTISSLEPEDFAVYYCQQSIEDPPTFGGGTKVEIKR
notes: also called control molecule; control antibody
In test [1], B2 returned an EC50 of 0.26 nM and an MFImax of 1160. For the same molecule, in test [2], the dissociation constant Kd is 57.9 nM, the off-rate (koff) was 0.00475 s⁻¹ and the kon is 82000 M⁻¹ s⁻¹. Further, in test [3], the Kd came to 59.9 nM, the koff is 0.00468 s⁻¹ and the on-rate constant (kon) was determined as 78200 M⁻¹ s⁻¹.

The record behind these values is EP4714971A1 (Shanghai Hansoh Biomedical Co., Ltd., dated 2024).
